Test results from FireProtDB (doi:10.1021/bi00210a045).

Conditions: Escherichia coli (strain K12), Thermal, DSC, reversible: yes, whole UniProt chain shown
[1] = pH 2.5, 25 °C, glycine or acetate 5 mM or 10 mM
[2] = pH 10.3, 25 °C, glycine or CAPS 5 mM or 10 mM
[3] = pH 10.3, Sodium glycinate 50 mM

B1: Chemotaxis protein CheY wild type, P0AE67 (protein)
chain: MADKELKFLVVDDFSTMRRIVRNLLKELGFNNVEEAEDGVDALNKLQAGGYGFVISDWNMPNMDGLELLKTIRADGAMSALPVLMVTAEAKKENIIAAAQAGASGYVVKPFTAATLEEKLNKIFEKLGM
heat capacity change of unfolding [1]: 0.89 kcal/mol/K
unfolding free energy [1]: 2.89 kcal/mol
Tm (pH 7, Sodium phosphate 50 mM): 58 °C
heat capacity change of unfolding (pH 7, Sodium phosphate 50 mM): 0.69 kcal/mol/K
unfolding enthalpy (calorimetric) (pH 7, Sodium phosphate 50 mM): 83.7 kcal/mol
heat capacity change of unfolding [2]: 0.84 kcal/mol/K
unfolding free energy [2]: 4.9 kcal/mol
Tm [3]: 55 °C
heat capacity change of unfolding [3]: 0.84 kcal/mol/K
unfolding enthalpy (calorimetric) [3]: 67 kcal/mol
